# Measurements taken from patent publication US20170369592A1, “NOVEL ANTI-FIBROBLAST ACTIVATION PROTEIN (FAP) ANTIBODIES AND USES DERIVED THEREOF” (Mabimmune Diagnostics AG, priority 2015, published 2017).
# T1: transmembrane human FAP (Homo sapiens, UniProt Q12884)
# T1 construct: retrovirus encoding full length human FAP cDNA; host or cells: HEK293 (FAP-HEK293, G418 selected)
# T1 sequence (Q12884 1-760): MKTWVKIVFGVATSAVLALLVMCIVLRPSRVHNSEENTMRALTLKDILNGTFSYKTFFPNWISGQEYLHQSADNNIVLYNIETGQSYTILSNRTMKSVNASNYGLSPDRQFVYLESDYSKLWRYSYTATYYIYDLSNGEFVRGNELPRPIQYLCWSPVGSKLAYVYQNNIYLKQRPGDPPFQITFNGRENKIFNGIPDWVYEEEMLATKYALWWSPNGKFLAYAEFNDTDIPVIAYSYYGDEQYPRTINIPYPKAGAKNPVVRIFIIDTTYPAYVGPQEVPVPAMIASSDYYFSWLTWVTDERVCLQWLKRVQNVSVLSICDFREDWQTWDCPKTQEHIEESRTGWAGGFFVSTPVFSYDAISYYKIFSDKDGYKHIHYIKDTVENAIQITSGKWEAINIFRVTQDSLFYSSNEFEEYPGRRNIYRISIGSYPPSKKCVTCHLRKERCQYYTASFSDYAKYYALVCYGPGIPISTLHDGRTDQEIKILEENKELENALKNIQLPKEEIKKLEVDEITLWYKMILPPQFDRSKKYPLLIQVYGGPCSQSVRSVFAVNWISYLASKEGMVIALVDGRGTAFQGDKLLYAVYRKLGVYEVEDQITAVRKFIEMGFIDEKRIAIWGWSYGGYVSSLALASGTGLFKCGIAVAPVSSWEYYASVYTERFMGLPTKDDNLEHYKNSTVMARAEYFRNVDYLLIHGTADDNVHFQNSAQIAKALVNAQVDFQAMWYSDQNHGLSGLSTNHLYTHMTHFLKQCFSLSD
# B1: NI-206.82C2: recombinant human memory B cell-derived monoclonal anti-FAP IgG1 antibody, variable regions in FIG. 1A, FAP inhibitory (antibody, V domains shown)
# VH: QVQLQQSGPGLVKPSQTLSLTCAISGDSVSSNSVTWNWIRQSPSRGLEWLGRTYYRSKWYNDYAVSVKGRITINPDTSKNQFYLQLKSVTPEDAAVYYCARDSSILYGDYWGQGTLVTVSS
# VL: QAVLTQPSSLSASPGASASLTCTLPSGINVGTYRIFWFQQKPGSPPQYLLSYKSDSDNHQGSGVPSRFSGSKDASANAGILLISGLQSEDEADYYCMIWHSSAWVFGGGTKLTVL
# Target: T1, transmembrane human FAP
# Test: Flow cytometry on FAP-HEK293 cells at pH 7.4, 6.8, 6.4
# Type: cell-based
# Details: pH 6.4 and 6.8 vs pH 7.4, FAP-HEK293 cells, Cy5 labelled
# Protocol: To evaluate the binding of NI-206.82C2 to transmembrane human FAP, an FAP expressing HEK293 cell line was received from the National Institutes of Health, Bethesda, Md. The generation of this FAP expressing HEK293 cells is described in: J. Exp. Med. 2013 Vol. 210 No. 6 1125-1135.
# HEK293 cells were transduced with retrovirus encoding full length human FAP cDNA. Cloning was performed using Fast Cloning Pack and FastDigest restriction enzymes (both from Fermentas). Transient retroviral supernatants were generated by transfecting 293GP cells with the FAP plasmid using Lipofectamine 2000 (Invitrogen). Retroviral supernatants were collected at 48 h after transfection and centrifuged onto Retronectin-coated (10 μg/ml; Takara), non-tissue culture-treated 6-well plates at 2,000 G for 2 h at 32° C. These retroviral supernatants where then used to transduce HEK293 cells overnight. Transduced FAP-HEK293 cells were selected with 1 mg/ml G418 (CellGro). […]
# To analyze antibody binding, fluorescent activated flow cytometry was performed using a BD Fortesa device for forward scatter, side scatter, and the mean fluorescent intensity (MFI) of the Cy5 channel was recorded using a […] laser excitation and 600/20 filter. Viable cells were gated by forward and side scatter, and singlets/doublet exclusion, and the MFI for Cy5 was quantified using FlowJo software Version 10.1.
molecule,measurement,value
B1,"binding to transmembrane FAP, pH dependence (Δ MFI)",higher affinity at lower pHs
